{"source": "paper doi:10.1101/2020.03.20.000240", "experiment_in_all_cases": "SPR", "key": {"[1]": {"molecular_target": "UmuDAb C-terminal domain (CTD) (Acinetobacter baumannii ATCC 17978)"}, "[2]": {"molecular_target": "full length UmuDAb transcription repressor from Acinetobacter baumannii (Acinetobacter baumannii ATCC 17978)"}, "[3]": {"molecular_target": "full-length UmuD, component of DNA polymerase V, from Acinetobacter baumannii (Acinetobacter baumannii ATCC 17978)"}}}
{"substance": "DdrR protein from Acinetobacter baumannii (natural protein)", "values": [{"measurement": "Kd", "setting": "[1]", "result": 106, "unit": "nM"}, {"measurement": "Kd", "setting": "[2]", "result": 83.3, "unit": "nM"}, {"measurement": "Kd", "setting": "[3]", "result": 294, "unit": "nM"}]}
